Experimental data from patent US20160264664A1.

Assays:
mouse P2X7 (mouse) = molecular target: T1, mouse P2X7 (mouse) (UniProt Q9Z1M0); test: cell-based or functional assay
T1 sequence: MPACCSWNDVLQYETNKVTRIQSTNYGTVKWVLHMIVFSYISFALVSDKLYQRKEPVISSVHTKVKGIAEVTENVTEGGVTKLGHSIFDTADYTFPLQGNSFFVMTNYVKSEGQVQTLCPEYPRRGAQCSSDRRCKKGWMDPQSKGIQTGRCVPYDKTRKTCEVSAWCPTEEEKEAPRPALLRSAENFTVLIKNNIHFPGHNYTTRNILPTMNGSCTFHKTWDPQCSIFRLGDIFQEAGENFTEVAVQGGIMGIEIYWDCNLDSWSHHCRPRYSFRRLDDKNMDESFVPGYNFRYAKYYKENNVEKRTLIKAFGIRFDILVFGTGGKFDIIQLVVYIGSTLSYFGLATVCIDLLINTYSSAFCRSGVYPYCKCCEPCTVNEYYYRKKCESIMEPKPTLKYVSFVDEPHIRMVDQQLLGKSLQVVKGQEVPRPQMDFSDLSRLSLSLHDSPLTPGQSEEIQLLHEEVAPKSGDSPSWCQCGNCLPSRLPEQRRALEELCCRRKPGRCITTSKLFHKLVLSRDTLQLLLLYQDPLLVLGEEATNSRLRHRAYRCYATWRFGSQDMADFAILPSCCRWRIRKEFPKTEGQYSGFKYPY

[1] = molecular target: plasma-derived HBsAg particles (Biodesign) (hepatitis B virus); test: SPR (Biacore), periplasmic extract over immobilised plasma-derived HBsAg particles, 1:1 dissociation model

B1: 14D5-35GS-14D5 (VHH)
chain: EVQLVESGGGLVQAGGSLRLSCAASGSPISSYAMGWYRQAPGKPRELVARIYTGGTAWYEDSVKGRFTISRDNAQNTVYLQMNSLKSEDTAVYYCHGRVRYDYWGQGTQVTVSSGGGGSGGGGSGGGGSGGGGSGGGGSGGGGSGGGGSEVQLVESGGGLVQAGGSLRLSCAASGSPISSYAMGWYRQAPGKPRELVARIYTGGTAWYEDSVKGRFTISRDNAQNTVYLQMNSLKSEDTAVYYCHGRVRYDYWGQGTQVTVSS
EC50, enhancement of CD62L-ectodomain shedding at 1.5 µM NAD (mouse P2X7 (mouse)): 60 pM | EC50, enhancement of CD62L-ectodomain shedding at 33 µM ATP (mouse P2X7 (mouse)): 100 pM | increase in potency vs. monovalent 14D5 (ATP-induced shedding) (mouse P2X7 (mouse)): 220 fold | increase in potency vs. monovalent 14D5 (NAD-induced shedding) (mouse P2X7 (mouse)): 40 fold

B2: 13A7-35GS-13A7 (VHH)
chain: EVQLVESGGGLVQPGESLRLSCTASRFMLDYYDIGWFRQAPGKEREGVSCRFTNDGSTAYADSVKGRFTISRDIVKHTVYLQMNSLQPEDTAVYYCAAGPLTKRRQCVPGDFSMDFWGEGTLVTVSSGGGGSGGGGSGGGGSGGGGSGGGGSGGGGSGGGGSEVQLVESGGGLVQPGESLRLSCTASRFMLDYYDIGWFRQAPGKEREGVSCRFTNDGSTAYADSVKGRFTISRDIVKHTVYLQMNSLQPEDTAVYYCAAGPLTKRRQCVPGDFSMDFWGEGTLVTVSS
IC50, CD62L shedding at 20 µM NAD (mouse P2X7 (mouse)): 300 pM | IC50, CD62L shedding at 100 µM ATP (mouse P2X7 (mouse)): 100 pM | potency increase vs. monovalent 13A7 (ATP) (mouse P2X7 (mouse)): 9 fold | potency increase vs. monovalent 13A7 (NAD) (mouse P2X7 (mouse)): 23 fold

B3: HBSAGPMP2E12 (VHH)
VHH: EVQLVESGGGLVQAGGSLRLSCAASGRSISEYAMGWFRQAPGQEREFVASISTSGGSTTYADSVKGRFIISRDNAKNTVYLQMNSLKPEDTAVYYCARYNGWMYYAGTMGVHFGQGTQVTVSS
koff [1]: 0.0013 s⁻¹

B4: 8G11-35GS-8G11 (VHH)
chain: EVQLVESGGGLVQAGGSLRLSCAASGNFFRVNTMAWYRQAPGKQRELVADITRGDRTNYADTVNGRFTISRDNVRNTVYLQMNGLRPEDTAAYYCYAVIELGVLEPRDYWGQGTQVTVSSGGGGSGGGGSGGGGSGGGGSGGGGSGGGGSGGGGSEVQLVESGGGLVQAGGSLRLSCAASGNFFRVNTMAWYRQAPGKQRELVADITRGDRTNYADTVNGRFTISRDNVRNTVYLQMNGLRPEDTAAYYCYAVIELGVLEPRDYWGQGTQVTVSS
IC50, CD62L shedding at 20 µM NAD (mouse P2X7 (mouse)): 520 pM | IC50, CD62L shedding at 100 µM ATP (mouse P2X7 (mouse)): 200 pM | potency increase vs. monovalent 8G11 (ATP) (mouse P2X7 (mouse)): 84 fold | potency increase vs. monovalent 8G11 (NAD) (mouse P2X7 (mouse)): 146 fold

B5: HBSAGPMP2E7 (VHH)
VHH: EVQLVESGGGLLQAGGSLRLSCAASERAFIIYGKAWFRQAPGKEREFVAGINWNGGDLHYADSVKGRFTISRDNTNNVVYLQMNSLKSEDTAVYYCAVRRGTAYETDVSSYEWGTQVTVSS
koff [1]: 0.00088 s⁻¹
